Drawing on the supplement of paper PMC10724198, this text covers protein stability index for 50 sequences.

± gives the standard deviation of the averaged measurements.

The subject of this data set is Saccharomyces cerevisiae. Kind of data set: protein stability index of tFT-peptide fusion (C-terminal peptide) (PSI (0-1 scale)); higher = more stable (slower turnover). As to conditions: temperature: 30 C. Here is the method:
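MPS profiling in S. cerevisiae of the yeast C-terminome library: the last 12 aa of each annotated ORF are fused to the C-terminus of a sfGFP-mCherry timer, after a GGGS linker. Cells are FACS-sorted into 8 mCherry/sfGFP bins and deep-sequenced. PSI runs from 0 (unstable) to 1 (stable); wild type and das1Δ backgrounds, two technical replicates each.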

Where [1] appears, read: genetic background: das1 deletion.

Turning to “ILSLYFISDRTG [YBR200W-A C-terminal 12 aa]”, the protein stability index stood at 0.7249 ± 0.0034 under setting [1] and 0.753 ± 0.053 (genetic background: wild type).

ILWKNGIYIAHI [HUR1 C-terminal 12 aa] displayed a protein stability index under setting [1] of 0.659 ± 0.01 and a protein stability index (genetic background: wild type) of 0.6113 ± 0.0034.

For ININDLMVNRNH [YOR389W C-terminal 12 aa], the protein stability index amounted to 0.7014 ± 0.0018 under setting [1] and 0.7003 ± 0.0012 (genetic background: wild type).

The sequence INKKKSGSGCIC [YPT10 C-terminal 12 aa] returned a protein stability index under setting [1] of 0.696 ± 0.035 and a protein stability index (genetic background: wild type) of 0.647 ± 0.026.

With INKRAVSNSKDV [RFT1 C-terminal 12 aa], the protein stability index is, setting by setting: under setting [1], 0.692 ± 0.026; (genetic background: wild type) 0.727 ± 0.027.

Take IPTKKSQMDYFL [PPH3 C-terminal 12 aa]: the protein stability index runs as follows: under setting [1], 0.709 ± 0.029; (genetic background: wild type) 0.753 ± 0.064.

As to IRLDGENNSCSC [YPT7 C-terminal 12 aa], the protein stability index reads like this: under setting [1], 0.692 ± 0.017; (genetic background: wild type) 0.697 ± 0.012.

For the sequence “ISRKAGHPAPAF [YML100W-A C-terminal 12 aa]”, the protein stability index stood at 0.717 ± 0.0091 under setting [1] and 0.704 ± 0.03 (genetic background: wild type).

Take ITLRLWEQRQAK [MAD1 C-terminal 12 aa]: the protein stability index is, setting by setting: under setting [1], 0.754 ± 0.019; (genetic background: wild type) 0.726 ± 0.0076.

Take IYALSIKHPKEI [CPT1 C-terminal 12 aa]: the protein stability index was found to be 0.713 ± 0.0085 under setting [1] and 0.7248 ± 0.0029 (genetic background: wild type).

IYANRDKAKKNM [OPI3 C-terminal 12 aa]: the protein stability index by setting is: under setting [1], 0.681 ± 0.021; (genetic background: wild type) 0.499 ± 0.03.

On to “IYIYTSTLQLCV [YHR028W-A C-terminal 12 aa]”, for which the protein stability index is 0.376 ± 0.024 under setting [1] and 0.362 ± 0.011 (genetic background: wild type).

Take “IYSVIQCLFLHS [YMR141W-A C-terminal 12 aa]”: the protein stability index runs as follows: under setting [1], 0.64018 ± 0.00059; (genetic background: wild type) 0.607 ± 0.018.

In the case of KAALDRVENALA [IML2 C-terminal 12 aa], the protein stability index reads like this: under setting [1], 0.699 ± 0.02; (genetic background: wild type) 0.676 ± 0.017.

With KAIEYFEEYQSW [FRE3 C-terminal 12 aa], the protein stability index is 0.721 ± 0.021 under setting [1] and 0.6952 ± 0.0065 (genetic background: wild type).

Turning to KDGFVLYSYGQK [SKP2 C-terminal 12 aa], the protein stability index runs as follows: under setting [1], 0.69 ± 0.021; (genetic background: wild type) 0.738 ± 0.034.

Consider KDKKDKKKKHRD [RPA34 C-terminal 12 aa], for which the protein stability index by setting is: under setting [1], 0.704 ± 0.013; (genetic background: wild type) 0.664 ± 0.035.

For KDLFASIGKKKL [FYV8 C-terminal 12 aa], the protein stability index under setting [1] worked out at 0.714 ± 0.011 and the protein stability index (genetic background: wild type) was 0.682 ± 0.026.

Take KDWLIKTRKTSL [TVS1 C-terminal 12 aa]: the protein stability index came out at 0.707 ± 0.013 under setting [1] and 0.693 ± 0.011 (genetic background: wild type).

For the sequence KEDKKKKSSNCC [YPT32 C-terminal 12 aa], the protein stability index reads like this: under setting [1], 0.704 ± 0.0073; (genetic background: wild type) 0.732 ± 0.014.

In the case of KEGRRSRTRTSS [YJR098C C-terminal 12 aa], the protein stability index is 0.7049 ± 0.0033 under setting [1] and 0.703 ± 0.0041 (genetic background: wild type).

KENLANNEILDN [YKL063C C-terminal 12 aa]: the protein stability index was 0.683 ± 0.018 under setting [1] and 0.67 ± 0.026 (genetic background: wild type).

Take KERIVLSNVRPM [TFC7 C-terminal 12 aa]: the protein stability index by setting is: under setting [1], 0.6909 ± 0.004; (genetic background: wild type) 0.686 ± 0.027.

In the case of KESIQQQEDDLL [SEC17 C-terminal 12 aa], the protein stability index runs as follows: under setting [1], 0.6974 ± 0.0026; (genetic background: wild type) 0.692 ± 0.014.

In the case of KETDKVNDENSI [MLP1 C-terminal 12 aa], the protein stability index is, setting by setting: under setting [1], 0.708 ± 0.0044; (genetic background: wild type) 0.756 ± 0.059.

In the case of KETTTRNYRGTC [GAD1 C-terminal 12 aa], the protein stability index reads like this: under setting [1], 0.71 ± 0.029; (genetic background: wild type) 0.707 ± 0.032.

As to KFAKANIGYVMG [RPN4 C-terminal 12 aa], the protein stability index reads like this: under setting [1], 0.4528 ± 0.0025; (genetic background: wild type) 0.495 ± 0.011.

Regarding KFDIVDQLLSTL [RSM24 C-terminal 12 aa], the protein stability index runs as follows: under setting [1], 0.7136 ± 0.0037; (genetic background: wild type) 0.684 ± 0.014.

For KFEKKLYNFLGF [GEP4 C-terminal 12 aa], the protein stability index was determined as 0.701 ± 0.028 under setting [1] and 0.717 ± 0.017 (genetic background: wild type).

In turn, KGMKRLDYRFIH [SOA1 C-terminal 12 aa] gave a protein stability index under setting [1] of 0.688 ± 0.029 and a protein stability index (genetic background: wild type) of 0.234 ± 0.012.

For KGNLPGVKKGIW [MRP2 C-terminal 12 aa], the protein stability index was 0.687 ± 0.012 under setting [1] and 0.668 ± 0.011 (genetic background: wild type).

Consider KGRYVNSSKRRS [NOB1 C-terminal 12 aa], for which the protein stability index is, setting by setting: under setting [1], 0.6955 ± 0.00021; (genetic background: wild type) 0.6781 ± 0.004.

In the case of KGTKRDQNDNHN [AQR1 C-terminal 12 aa], the protein stability index was found to be 0.698 ± 0.01 under setting [1] and 0.6782 ± 0.0022 (genetic background: wild type).

As to KHAFMGTLKKDL [RPL3 C-terminal 12 aa], the protein stability index by setting is: under setting [1], 0.7 ± 0.01; (genetic background: wild type) 0.686 ± 0.03.

Consider KIEHVDDETRTH [PEX13 C-terminal 12 aa], for which the protein stability index reads like this: under setting [1], 0.6991 ± 0.0032; (genetic background: wild type) 0.6991 ± 0.0042.

Consider KILGRYVVDTSK [ADH3 C-terminal 12 aa], for which the protein stability index reads like this: under setting [1], 0.7177 ± 0.0055; (genetic background: wild type) 0.6547 ± 0.0035.

Take KKKRGFLGLFGR [SRP68 C-terminal 12 aa]: the protein stability index came out at 0.706 ± 0.021 under setting [1] and 0.677 ± 0.0092 (genetic background: wild type).

Turning to KKLEGTIEYQKL [RPT4 C-terminal 12 aa], the protein stability index runs as follows: under setting [1], 0.708 ± 0.027; (genetic background: wild type) 0.702 ± 0.012.

With KKLNFKLCQAFM [NUP85 C-terminal 12 aa], the protein stability index was 0.673 ± 0.012 under setting [1] and 0.6183 ± 0.006 (genetic background: wild type).

With KKNGKISEKPKK [PDR15 C-terminal 12 aa], the protein stability index by setting is: under setting [1], 0.727 ± 0.02; (genetic background: wild type) 0.677 ± 0.037.

With KKNKSAIDGIFG [RMP1 C-terminal 12 aa], the protein stability index under setting [1] was 0.7173 ± 0.0015 and the protein stability index (genetic background: wild type) stood at 0.694 ± 0.014.

KKPSSYVMVPRP [MRPL8 C-terminal 12 aa]: the protein stability index worked out at 0.708 ± 0.011 under setting [1] and 0.6724 ± 0.002 (genetic background: wild type).

In the case of KKQESDNDANSK [CMC2 C-terminal 12 aa], the protein stability index runs as follows: under setting [1], 0.703 ± 0.014; (genetic background: wild type) 0.6755 ± 0.0052.

With KKSKNRNTSLRP [SIP5 C-terminal 12 aa], the protein stability index by setting is: under setting [1], 0.726 ± 0.02; (genetic background: wild type) 0.689 ± 0.02.

Consider “KLDEAEMQGLIM [YMR158C-A C-terminal 12 aa]”, for which the protein stability index runs as follows: under setting [1], 0.69 ± 0.012; (genetic background: wild type) 0.724 ± 0.041.

As to KLKRTITLPQLD [CIK1 C-terminal 12 aa], the protein stability index is, setting by setting: under setting [1], 0.691 ± 0.022; (genetic background: wild type) 0.761 ± 0.074.

As for KLSAPIFSILHS [APT2 C-terminal 12 aa], the protein stability index reads like this: under setting [1], 0.721 ± 0.0083; (genetic background: wild type) 0.504 ± 0.0051.

Consider “KLTIRIKQKTHL [YOR316C-A C-terminal 12 aa]”, for which the protein stability index by setting is: under setting [1], 0.702 ± 0.012; (genetic background: wild type) 0.6824 ± 0.0065.

Regarding KMGQSFNAAGKF [TIM10 C-terminal 12 aa], the protein stability index worked out at 0.692 ± 0.033 under setting [1] and 0.683 ± 0.0072 (genetic background: wild type).

As to KNFKTDLSSSSL [SMK1 C-terminal 12 aa], the protein stability index stood at 0.7 ± 0.0086 under setting [1] and 0.711 ± 0.014 (genetic background: wild type).
